B1: Nuclear receptor subfamily 4 group A member 2, residues 260 to 336; numbered along this chain, P43354 (parent)
chain: EGLCAVCGDNAACQHYGVRTCEGCKGFFKRTVQKNAKYVCLANKNCPVDKRRRNRCQYCRFQKCLAVGMVKEVVRTD

± gives the uncertainty stated by the source.

The variants in this data set derive from B1. Kind of data set: abundance fitness (aPCA) (normalised: wild type 0, dead -1); higher = more abundant; growth selection in yeast, the domain comes from the species named. Particulars: Homo sapiens.
For the variant EGLCAVCGDNAACQHYGVRTCEGCKGFFKRTVQKNAKYVCLANKNCPVDKRRRNRCQYCRFQKCLAVGMVKEVVRWD [T76W], the abundance fitness was -0.085 ± 0.053.

Take EGLCAVCGDNAACQHYGVRTCEGCKGFFKRTVQKNAKYVCLANKNCPVDKRRRNRCQYCRFQKCLAVGMVKEVVRSD [T76S]: the abundance fitness was -0.014 ± 0.1.

Regarding EGLCAVCGDNAACQHYGVRTCEGCKGFFKRTVQKNAKYVCLANKNCPVDKRRRNRCQYCRFQKCLAVGMVKEVVRED [T76E], the abundance fitness turned out to be 0.161 ± 0.13.

With EGLCAVCGDNAACQHYGVRTCEGCKGFFKRTVQKNAKYVCLANKNCPVDKRRRNRCQYCRFQKCLAVGMVKEVVRRD [T76R], the abundance fitness worked out at 0.015 ± 0.068.

Consider EGLCAVCGDNAACQHYGVRTCEGCKGFFKRTVQKNAKYVCLANKNCPVDKRRRNRCQYCRFQKCLAVGMVKEVVRYD [T76Y], for which the abundance fitness turned out to be 0.168 ± 0.13.

Turning to EGLCAVCGDNAACQHYGVRTCEGCKGFFKRTVQKNAKYVCLANKNCPVDKRRRNRCQYCRFQKCLAVGMVKEVVRFD [T76F], the abundance fitness is -0.079 ± 0.1.

As for EGLCAVCGDNAACQHYGVRTCEGCKGFFKRTVQKNAKYVCLANKNCPVDKRRRNRCQYCRFQKCLAVGMVKEVVRVD [T76V], the abundance fitness was -0.019 ± 0.052.

Consider EGLCAVCGDNAACQHYGVRTCEGCKGFFKRTVQKNAKYVCLANKNCPVDKRRRNRCQYCRFQKCLAVGMVKEVVRID [T76I], for which the abundance fitness was -0.007 ± 0.19.

Take EGLCAVCGDNAACQHYGVRTCEGCKGFFKRTVQKNAKYVCLANKNCPVDKRRRNRCQYCRFQKCLAVGMVKEVVRPD [T76P]: the abundance fitness is -0.004 ± 0.37.

In the case of EGLCAVCGDNAACQHYGVRTCEGCKGFFKRTVQKNAKYVCLANKNCPVDKRRRNRCQYCRFQKCLAVGMVKEVVRKD [T76K], the abundance fitness is -0.041 ± 0.18.

Turning to EGLCAVCGDNAACQHYGVRTCEGCKGFFKRTVQKNAKYVCLANKNCPVDKRRRNRCQYCRFQKCLAVGMVKEVVNTD [R75N], the abundance fitness came to 0 ± 0.39.

Turning to EGLCAVCGDNAACQHYGVRTCEGCKGFFKRTVQKNAKYVCLANKNCPVDKRRRNRCQYCRFQKCLAVGMVKEVVCTD [R75C], the abundance fitness amounted to 0.057 ± 0.055.

For EGLCAVCGDNAACQHYGVRTCEGCKGFFKRTVQKNAKYVCLANKNCPVDKRRRNRCQYCRFQKCLAVGMVKEVVLTD [R75L], the abundance fitness is 0.015 ± 0.053.

Consider EGLCAVCGDNAACQHYGVRTCEGCKGFFKRTVQKNAKYVCLANKNCPVDKRRRNRCQYCRFQKCLAVGMVKEVVQTD [R75Q], for which the abundance fitness is 0.065 ± 0.26.

EGLCAVCGDNAACQHYGVRTCEGCKGFFKRTVQKNAKYVCLANKNCPVDKRRRNRCQYCRFQKCLAVGMVKEVVTTD [R75T]: the abundance fitness came out at 0.214 ± 0.37.

In the case of EGLCAVCGDNAACQHYGVRTCEGCKGFFKRTVQKNAKYVCLANKNCPVDKRRRNRCQYCRFQKCLAVGMVKEVVDTD [R75D], the abundance fitness was -0.136 ± 0.12.

For the variant EGLCAVCGDNAACQHYGVRTCEGCKGFFKRTVQKNAKYVCLANKNCPVDKRRRNRCQYCRFQKCLAVGMVKEVVSTD [R75S], the abundance fitness was 0.063 ± 0.12.

For the variant EGLCAVCGDNAACQHYGVRTCEGCKGFFKRTVQKNAKYVCLANKNCPVDKRRRNRCQYCRFQKCLAVGMVKEVVVTD [R75V], the abundance fitness was determined as 0 ± 0.036.

Take EGLCAVCGDNAACQHYGVRTCEGCKGFFKRTVQKNAKYVCLANKNCPVDKRRRNRCQYCRFQKCLAVGMVKEVVYTD [R75Y]: the abundance fitness is -0.112 ± 0.19.

As to EGLCAVCGDNAACQHYGVRTCEGCKGFFKRTVQKNAKYVCLANKNCPVDKRRRNRCQYCRFQKCLAVGMVKEVVATD [R75A], the abundance fitness was -0.01 ± 0.075.

As to EGLCAVCGDNAACQHYGVRTCEGCKGFFKRTVQKNAKYVCLANKNCPVDKRRRNRCQYCRFQKCLAVGMVKEVVITD [R75I], the abundance fitness is -0.017 ± 0.14.

Regarding EGLCAVCGDNAACQHYGVRTCEGCKGFFKRTVQKNAKYVCLANKNCPVDKRRRNRCQYCRFQKCLAVGMVKEVVWTD [R75W], the abundance fitness is -0.103 ± 0.051.

Take EGLCAVCGDNAACQHYGVRTCEGCKGFFKRTVQKNAKYVCLANKNCPVDKRRRNRCQYCRFQKCLAVGMVKEVVGTD [R75G]: the abundance fitness turned out to be 0.033 ± 0.031.

On to EGLCAVCGDNAACQHYGVRTCEGCKGFFKRTVQKNAKYVCLANKNCPVDKRRRNRCQYCRFQKCLAVGMVKEVVMTD [R75M], for which the abundance fitness turned out to be 0.019 ± 0.13.

For the variant EGLCAVCGDNAACQHYGVRTCEGCKGFFKRTVQKNAKYVCLANKNCPVDKRRRNRCQYCRFQKCLAVGMVKEVVETD [R75E], the abundance fitness amounted to 0.094 ± 0.087.

Consider EGLCAVCGDNAACQHYGVRTCEGCKGFFKRTVQKNAKYVCLANKNCPVDKRRRNRCQYCRFQKCLAVGMVKEVARTD [V74A], for which the abundance fitness was -0.1 ± 0.1.

In the case of EGLCAVCGDNAACQHYGVRTCEGCKGFFKRTVQKNAKYVCLANKNCPVDKRRRNRCQYCRFQKCLAVGMVKEVGRTD [V74G], the abundance fitness is -0.013 ± 0.039.

Consider EGLCAVCGDNAACQHYGVRTCEGCKGFFKRTVQKNAKYVCLANKNCPVDKRRRNRCQYCRFQKCLAVGMVKEVWRTD [V74W], for which the abundance fitness is -0.208 ± 0.066.

Regarding EGLCAVCGDNAACQHYGVRTCEGCKGFFKRTVQKNAKYVCLANKNCPVDKRRRNRCQYCRFQKCLAVGMVKEVIRTD [V74I], the abundance fitness came to 0.091 ± 0.13.

On to EGLCAVCGDNAACQHYGVRTCEGCKGFFKRTVQKNAKYVCLANKNCPVDKRRRNRCQYCRFQKCLAVGMVKEVFRTD [V74F], for which the abundance fitness is -0.148 ± 0.13.

Take EGLCAVCGDNAACQHYGVRTCEGCKGFFKRTVQKNAKYVCLANKNCPVDKRRRNRCQYCRFQKCLAVGMVKEVRRTD [V74R]: the abundance fitness was -0.118 ± 0.11.

For the variant EGLCAVCGDNAACQHYGVRTCEGCKGFFKRTVQKNAKYVCLANKNCPVDKRRRNRCQYCRFQKCLAVGMVKEVKRTD [V74K], the abundance fitness is -0.025 ± 0.31.

Regarding EGLCAVCGDNAACQHYGVRTCEGCKGFFKRTVQKNAKYVCLANKNCPVDKRRRNRCQYCRFQKCLAVGMVKEVLRTD [V74L], the abundance fitness was -0.052 ± 0.065.

As for EGLCAVCGDNAACQHYGVRTCEGCKGFFKRTVQKNAKYVCLANKNCPVDKRRRNRCQYCRFQKCLAVGMVKEVDRTD [V74D], the abundance fitness is 0.131 ± 0.13.

In the case of EGLCAVCGDNAACQHYGVRTCEGCKGFFKRTVQKNAKYVCLANKNCPVDKRRRNRCQYCRFQKCLAVGMVKEVSRTD [V74S], the abundance fitness is -0.101 ± 0.12.

EGLCAVCGDNAACQHYGVRTCEGCKGFFKRTVQKNAKYVCLANKNCPVDKRRRNRCQYCRFQKCLAVGMVKEVCRTD [V74C]: the abundance fitness is -0.098 ± 0.071.

Source of the values: the Human Domainome abundance scans (Beltran et al. 2025).
